As a reminder, the IC50 is the concentration needed to halve the response being measured. In general, EC50 refers to the concentration that produces a half-maximal response.

Where two headings read alike, the source gives them in different places.

Assay [1] addresses αvβ6 on VB6 cells (human) (UniProt P06756). Briefly: cell-based or functional assay.
Assay [2] deals with T1, recombinant soluble αvβ6, P06756.
T1 chain 1: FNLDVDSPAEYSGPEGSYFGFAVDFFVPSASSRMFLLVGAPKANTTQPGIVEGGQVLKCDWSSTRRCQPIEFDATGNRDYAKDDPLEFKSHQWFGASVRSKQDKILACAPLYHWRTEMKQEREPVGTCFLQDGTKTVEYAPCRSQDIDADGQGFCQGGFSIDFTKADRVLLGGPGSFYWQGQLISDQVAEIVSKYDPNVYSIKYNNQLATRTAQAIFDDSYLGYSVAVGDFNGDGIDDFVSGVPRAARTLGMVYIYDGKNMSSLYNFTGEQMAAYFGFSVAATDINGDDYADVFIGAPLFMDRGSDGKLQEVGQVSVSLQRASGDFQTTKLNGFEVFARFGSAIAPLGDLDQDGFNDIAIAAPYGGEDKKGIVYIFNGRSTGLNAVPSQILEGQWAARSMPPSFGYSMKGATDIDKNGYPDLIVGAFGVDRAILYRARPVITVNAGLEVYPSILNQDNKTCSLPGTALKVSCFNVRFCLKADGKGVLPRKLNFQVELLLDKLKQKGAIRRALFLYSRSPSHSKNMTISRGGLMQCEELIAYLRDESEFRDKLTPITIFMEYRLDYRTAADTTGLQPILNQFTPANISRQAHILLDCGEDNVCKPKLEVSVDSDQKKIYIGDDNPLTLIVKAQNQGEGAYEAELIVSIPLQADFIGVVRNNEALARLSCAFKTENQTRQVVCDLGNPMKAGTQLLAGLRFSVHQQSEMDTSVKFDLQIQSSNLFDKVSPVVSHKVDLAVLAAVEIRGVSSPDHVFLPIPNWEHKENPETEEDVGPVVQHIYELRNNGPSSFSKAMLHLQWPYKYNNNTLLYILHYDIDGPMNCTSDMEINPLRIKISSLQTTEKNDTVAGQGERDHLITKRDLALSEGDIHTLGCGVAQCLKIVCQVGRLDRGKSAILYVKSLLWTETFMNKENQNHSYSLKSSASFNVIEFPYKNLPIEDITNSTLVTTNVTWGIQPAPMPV
T1 chain 2: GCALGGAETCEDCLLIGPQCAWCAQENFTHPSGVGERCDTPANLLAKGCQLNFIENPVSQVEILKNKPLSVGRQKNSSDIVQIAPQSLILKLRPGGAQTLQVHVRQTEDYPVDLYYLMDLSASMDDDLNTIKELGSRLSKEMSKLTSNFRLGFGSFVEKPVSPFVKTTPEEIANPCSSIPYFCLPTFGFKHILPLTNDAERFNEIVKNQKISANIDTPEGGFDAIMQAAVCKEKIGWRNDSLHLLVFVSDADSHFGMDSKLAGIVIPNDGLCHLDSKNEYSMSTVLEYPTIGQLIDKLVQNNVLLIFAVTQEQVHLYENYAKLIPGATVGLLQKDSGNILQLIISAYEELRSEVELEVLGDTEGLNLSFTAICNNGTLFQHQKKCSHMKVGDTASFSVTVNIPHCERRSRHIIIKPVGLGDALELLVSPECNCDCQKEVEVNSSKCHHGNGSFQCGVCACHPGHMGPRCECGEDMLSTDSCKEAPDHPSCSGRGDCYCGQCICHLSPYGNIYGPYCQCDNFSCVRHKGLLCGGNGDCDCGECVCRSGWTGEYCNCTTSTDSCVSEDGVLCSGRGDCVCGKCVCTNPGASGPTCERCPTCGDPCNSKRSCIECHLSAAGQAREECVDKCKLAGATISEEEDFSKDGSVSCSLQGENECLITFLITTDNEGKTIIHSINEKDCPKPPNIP
Put plainly: competitive (Screening) ELISA; rsαvβ6 captured on anti-αv P2W7; competitor biotinylated fibronectin. On the technique in general: ELISA stands for enzyme-linked immunosorbent assay.

The target in assay [3] is T2, αvβ6 on 3T3β6.19 cells (mouse; human), P43406.
T2 chain 1: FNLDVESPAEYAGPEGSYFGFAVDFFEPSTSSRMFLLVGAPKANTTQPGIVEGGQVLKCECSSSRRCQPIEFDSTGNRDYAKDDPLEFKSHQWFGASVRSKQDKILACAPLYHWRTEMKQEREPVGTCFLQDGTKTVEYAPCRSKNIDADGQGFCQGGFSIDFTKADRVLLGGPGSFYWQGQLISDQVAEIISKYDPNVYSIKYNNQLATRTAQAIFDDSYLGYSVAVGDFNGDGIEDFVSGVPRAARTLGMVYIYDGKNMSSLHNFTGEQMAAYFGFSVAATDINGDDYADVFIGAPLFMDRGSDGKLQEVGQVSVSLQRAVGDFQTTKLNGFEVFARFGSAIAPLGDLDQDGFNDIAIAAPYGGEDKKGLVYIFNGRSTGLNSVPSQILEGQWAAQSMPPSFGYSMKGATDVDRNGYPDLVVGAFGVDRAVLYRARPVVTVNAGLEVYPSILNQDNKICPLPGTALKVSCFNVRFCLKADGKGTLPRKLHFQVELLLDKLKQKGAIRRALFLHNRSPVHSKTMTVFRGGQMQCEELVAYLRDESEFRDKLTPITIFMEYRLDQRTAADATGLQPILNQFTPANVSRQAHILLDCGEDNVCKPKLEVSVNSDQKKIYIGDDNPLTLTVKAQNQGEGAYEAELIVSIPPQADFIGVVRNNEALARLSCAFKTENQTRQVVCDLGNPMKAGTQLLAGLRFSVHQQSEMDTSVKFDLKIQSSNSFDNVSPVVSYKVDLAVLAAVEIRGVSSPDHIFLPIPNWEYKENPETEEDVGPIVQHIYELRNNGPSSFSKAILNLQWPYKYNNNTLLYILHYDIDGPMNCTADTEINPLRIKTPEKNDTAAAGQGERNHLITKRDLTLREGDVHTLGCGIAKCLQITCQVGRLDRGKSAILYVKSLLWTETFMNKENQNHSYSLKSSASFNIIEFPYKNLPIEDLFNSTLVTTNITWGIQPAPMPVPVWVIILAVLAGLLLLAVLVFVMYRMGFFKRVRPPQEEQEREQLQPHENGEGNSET
T2 chain 2: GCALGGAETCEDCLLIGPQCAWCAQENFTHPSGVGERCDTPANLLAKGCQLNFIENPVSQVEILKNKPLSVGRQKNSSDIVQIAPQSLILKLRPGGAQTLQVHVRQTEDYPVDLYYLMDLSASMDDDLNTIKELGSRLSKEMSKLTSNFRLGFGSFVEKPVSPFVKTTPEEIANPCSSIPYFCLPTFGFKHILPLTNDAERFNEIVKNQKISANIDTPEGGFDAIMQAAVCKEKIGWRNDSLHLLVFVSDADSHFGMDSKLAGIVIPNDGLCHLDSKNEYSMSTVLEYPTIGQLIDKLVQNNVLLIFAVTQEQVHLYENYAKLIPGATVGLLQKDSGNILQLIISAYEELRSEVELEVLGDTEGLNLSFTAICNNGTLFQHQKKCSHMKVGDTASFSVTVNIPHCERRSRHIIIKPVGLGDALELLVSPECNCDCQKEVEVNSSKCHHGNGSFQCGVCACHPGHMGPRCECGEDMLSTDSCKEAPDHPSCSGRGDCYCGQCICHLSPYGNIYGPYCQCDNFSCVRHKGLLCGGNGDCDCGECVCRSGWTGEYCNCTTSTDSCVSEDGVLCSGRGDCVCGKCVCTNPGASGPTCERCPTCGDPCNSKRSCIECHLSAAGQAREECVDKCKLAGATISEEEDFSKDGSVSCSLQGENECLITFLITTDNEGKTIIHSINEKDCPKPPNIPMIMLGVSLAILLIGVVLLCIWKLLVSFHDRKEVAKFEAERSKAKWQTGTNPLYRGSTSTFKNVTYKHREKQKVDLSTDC
Put plainly: cell-based or functional assay.

Assay [4] has as its target T1, recombinant soluble αvβ6, P06756. Put plainly: competitive sandwich ELISA; rsαvβ6 captured on anti-αv P2W7; competitor biotinylated fibronectin.
Assay [5] has the same target.
Assay [6] has the same target. Put plainly: non-competitive binding ELISA; biotinylated peptide on immobilised rsαvβ6.

As to A20FMDV1 (peptide), the IC50, inhibition of adhesion of VB6 cells to LAP in assay [1] turned out to be 38200 nM.

On to SAAARGDLEQLTSLLQNNVN (modifications not checked) [P_18INK], for which, in assay [2], the IC50 came out at 23 nM.

Consider GFTTGRRGDLATIHGMNRPF (modifications not checked) [A20LAP], for which the adhesion of 3T3β6.19 to LAP in the presence of 20 µM peptide, % of control cell adhesion (% of control cell adhesion) in assay [3] came out at 32.

For FTTGRRGDLATI (modifications not checked) [DD2], the IC50 in assay [4] turned out to be 30.9 nM.

Consider VPNLRGDLQVLA (modifications not checked) [DD19], for which the IC50 of inhibition of αvβ6-dependent binding of cells to LAP in assay [3] was determined as 190000 nM. Also, the concentration for half-maximal inhibition (IC50) in assay [5] was found to be 85 nM.

For TGRRGDLATI (modifications not checked) [DD3], the adhesion of 3T3β6.19 to LAP in the presence of 20 µM peptide, % of control cell adhesion (% of control cell adhesion) in assay [3] is 79. Moreover, the IC50 in assay [4] was 22.6 nM.

Consider RRGDLATIH (modifications not checked) [DD1], for which, in assay [3], the IC50 of inhibition of αvβ6-dependent binding of 3T3β6.19 to LAP is 216000 nM and the adhesion of 3T3β6.19 to LAP in the presence of 20 µM peptide, % of control cell adhesion (% of control cell adhesion) was 57.

On to CYVPNLRGDLQVLAQKVAKC (modifications not checked) [B-DBD2], for which the EC50 in assay [6] amounted to 1.7 nM.

The values above are taken from US20130149248A1.
